Publication doi:10.1101/2024.01.03.573903v1

Substrate: Nc1ncnc2c1ncn2[C@@H]1O[C@H](COP(=O)(O)OP(=O)(O)OP(=O)(O)O)[C@@H](O)[C@H]1O
Experiment: malachite green phosphate release NTPase assay
Type: biochemical, Zika virus
Conditions: no curcumin, 1% DMSO, 80 nM enzyme, Tris pH 7.4, 25 °C

B1: ZIKV NS3 helicase (Zika virus) (protein)
chain: PVECFEPSMLKKKQLTVLDLHPGAGKTRRVLPEIVREAIKKRLRTVILAPTRVVAAEMEEALRGLPVRYMTTAVNVTHSGTEIVDLMCHATFTSRLLQPIRVPNYNLNIMDEAHFTDPSSIAARGYISTRVEMGEAAAIFMTATPPGTRDAFPDSNSPIMDTEVEVPERAWSSGFDWVTDHSGKTVWFVPSVRNGNEIAACLTKAGKRVIQLSRKTFETEFQKTKNQEWDFVITTDISEMGANFKADRVIDSRRCLKPVILDGERVILAGPMPVTHASAAQRRGRIGRNPNKPGDEYMYGGGCAETDEGHAHWLEARMLLDNIYLQDGLIASLYRPEADKVAAIEGEFKLRTEQRKTFVELMKRGDLPVWLAYQVASAGITYTDRRWCFDGTTNNTIMEDSVPAEVWTKYGEKRVLKPRWMDARVCSDHAALKSFKEFAAGKR
  Km: 336.3 ± 61.97 µM
  kcat: 1.025 ± 0.06 s⁻¹
